This note sets out measurements from article PMC7603204.

B1: E. coli AlaRS (Escherichia coli K-12; C666A/R561C) (protein)
chain: SKSTAEIRQAFLDFFHSKGHQVVASSSLVPHNDPTLLFTNAGMNQFKDVFLGLDKRNYSRATTSQRCVRAGGKHNDLENVGYTARHHTFFEMLGNFSFGDYFKHDAIQFAWELLTSEKWFALPKERLWVTVYESDDEAYEIWEKEVGIPRERIIRIGDNKGAPYASDNFWQMGDTGPCGPCTEIFYDHGDHIWGGPPGSPEEDGDRYIEIWNIVFMQFNRQADGTMEPLPKPSVDTGMGLERIAAVLQHVNSNYDIDLFRTLIQAVAKVTGATDLSNKSLRVIADHIRSCAFLIADGVMPSNENRGYVLRRIIRRAVRHGNMLGAKETFFYKLVGPLIDVMGSAGEDLKRQQAQVEQVLKTEEEQFARTLERGLALLDEELAKLSGDTLDGETAFRLYDTYGFPVDLTADVCRERNIKVDEAGFEAAMEEQRRRAREASGFGADYNAMIRVDSASEFKGYDHLELNGKVTALFVDGKAVDAINAGQEAVVVLDQTPFYAESGGQVGDKGELKGANFSFAVEDTQKYGQAIGHIGKLAAGSLKVGDAVQADVDEARRARICLNHSATHLMHAALRQVLGTHVSQKGSLVNDKVLRFDFSHNEAMKPEEIRAVEDLVNTQIRRNLPIETNIMDLEAAKAKGAMALFGEKYDERVRVLSMGDFSTELAGGTHASRTGDIGLFRIISESGTAAGVRRIEAVTGEGAIATVHADSDRLSEVAHLLKGDSNNLADKVRSVLERTRQLEKELQQLKEQAAAQESANLSSKAIDVNGVKLLVSELSGVEPKMLRTMVDDLKNQLGSTIIVLATVVEGKVSLIAGVSKDVTDRVKAGELIGMVAQQVGGKGGGRPDMAQAGGTDAAALPAALASVKGWVSAKLQ
B2: E. coli AlaRS (Escherichia coli K-12; C666A/R561S) (protein)
chain: SKSTAEIRQAFLDFFHSKGHQVVASSSLVPHNDPTLLFTNAGMNQFKDVFLGLDKRNYSRATTSQRCVRAGGKHNDLENVGYTARHHTFFEMLGNFSFGDYFKHDAIQFAWELLTSEKWFALPKERLWVTVYESDDEAYEIWEKEVGIPRERIIRIGDNKGAPYASDNFWQMGDTGPCGPCTEIFYDHGDHIWGGPPGSPEEDGDRYIEIWNIVFMQFNRQADGTMEPLPKPSVDTGMGLERIAAVLQHVNSNYDIDLFRTLIQAVAKVTGATDLSNKSLRVIADHIRSCAFLIADGVMPSNENRGYVLRRIIRRAVRHGNMLGAKETFFYKLVGPLIDVMGSAGEDLKRQQAQVEQVLKTEEEQFARTLERGLALLDEELAKLSGDTLDGETAFRLYDTYGFPVDLTADVCRERNIKVDEAGFEAAMEEQRRRAREASGFGADYNAMIRVDSASEFKGYDHLELNGKVTALFVDGKAVDAINAGQEAVVVLDQTPFYAESGGQVGDKGELKGANFSFAVEDTQKYGQAIGHIGKLAAGSLKVGDAVQADVDEARRARISLNHSATHLMHAALRQVLGTHVSQKGSLVNDKVLRFDFSHNEAMKPEEIRAVEDLVNTQIRRNLPIETNIMDLEAAKAKGAMALFGEKYDERVRVLSMGDFSTELAGGTHASRTGDIGLFRIISESGTAAGVRRIEAVTGEGAIATVHADSDRLSEVAHLLKGDSNNLADKVRSVLERTRQLEKELQQLKEQAAAQESANLSSKAIDVNGVKLLVSELSGVEPKMLRTMVDDLKNQLGSTIIVLATVVEGKVSLIAGVSKDVTDRVKAGELIGMVAQQVGGKGGGRPDMAQAGGTDAAALPAALASVKGWVSAKLQ
B3: E. coli AlaRS (Escherichia coli K-12) (protein)
chain: SKSTAEIRQAFLDFFHSKGHQVVASSSLVPHNDPTLLFTNAGMNQFKDVFLGLDKRNYSRATTSQRCVRAGGKHNDLENVGYTARHHTFFEMLGNFSFGDYFKHDAIQFAWELLTSEKWFALPKERLWVTVYESDDEAYEIWEKEVGIPRERIIRIGDNKGAPYASDNFWQMGDTGPCGPCTEIFYDHGDHIWGGPPGSPEEDGDRYIEIWNIVFMQFNRQADGTMEPLPKPSVDTGMGLERIAAVLQHVNSNYDIDLFRTLIQAVAKVTGATDLSNKSLRVIADHIRSCAFLIADGVMPSNENRGYVLRRIIRRAVRHGNMLGAKETFFYKLVGPLIDVMGSAGEDLKRQQAQVEQVLKTEEEQFARTLERGLALLDEELAKLSGDTLDGETAFRLYDTYGFPVDLTADVCRERNIKVDEAGFEAAMEEQRRRAREASGFGADYNAMIRVDSASEFKGYDHLELNGKVTALFVDGKAVDAINAGQEAVVVLDQTPFYAESGGQVGDKGELKGANFSFAVEDTQKYGQAIGHIGKLAAGSLKVGDAVQADVDEARRARIRLNHSATHLMHAALRQVLGTHVSQKGSLVNDKVLRFDFSHNEAMKPEEIRAVEDLVNTQIRRNLPIETNIMDLEAAKAKGAMALFGEKYDERVRVLSMGDFSTELCGGTHASRTGDIGLFRIISESGTAAGVRRIEAVTGEGAIATVHADSDRLSEVAHLLKGDSNNLADKVRSVLERTRQLEKELQQLKEQAAAQESANLSSKAIDVNGVKLLVSELSGVEPKMLRTMVDDLKNQLGSTIIVLATVVEGKVSLIAGVSKDVTDRVKAGELIGMVAQQVGGKGGGRPDMAQAGGTDAAALPAALASVKGWVSAKLQ
B4: E. coli AlaRS (Escherichia coli K-12; R561S) (protein)
chain: SKSTAEIRQAFLDFFHSKGHQVVASSSLVPHNDPTLLFTNAGMNQFKDVFLGLDKRNYSRATTSQRCVRAGGKHNDLENVGYTARHHTFFEMLGNFSFGDYFKHDAIQFAWELLTSEKWFALPKERLWVTVYESDDEAYEIWEKEVGIPRERIIRIGDNKGAPYASDNFWQMGDTGPCGPCTEIFYDHGDHIWGGPPGSPEEDGDRYIEIWNIVFMQFNRQADGTMEPLPKPSVDTGMGLERIAAVLQHVNSNYDIDLFRTLIQAVAKVTGATDLSNKSLRVIADHIRSCAFLIADGVMPSNENRGYVLRRIIRRAVRHGNMLGAKETFFYKLVGPLIDVMGSAGEDLKRQQAQVEQVLKTEEEQFARTLERGLALLDEELAKLSGDTLDGETAFRLYDTYGFPVDLTADVCRERNIKVDEAGFEAAMEEQRRRAREASGFGADYNAMIRVDSASEFKGYDHLELNGKVTALFVDGKAVDAINAGQEAVVVLDQTPFYAESGGQVGDKGELKGANFSFAVEDTQKYGQAIGHIGKLAAGSLKVGDAVQADVDEARRARISLNHSATHLMHAALRQVLGTHVSQKGSLVNDKVLRFDFSHNEAMKPEEIRAVEDLVNTQIRRNLPIETNIMDLEAAKAKGAMALFGEKYDERVRVLSMGDFSTELCGGTHASRTGDIGLFRIISESGTAAGVRRIEAVTGEGAIATVHADSDRLSEVAHLLKGDSNNLADKVRSVLERTRQLEKELQQLKEQAAAQESANLSSKAIDVNGVKLLVSELSGVEPKMLRTMVDDLKNQLGSTIIVLATVVEGKVSLIAGVSKDVTDRVKAGELIGMVAQQVGGKGGGRPDMAQAGGTDAAALPAALASVKGWVSAKLQ
B5: E. coli AlaRS (Escherichia coli K-12; D551Y) (protein)
chain: SKSTAEIRQAFLDFFHSKGHQVVASSSLVPHNDPTLLFTNAGMNQFKDVFLGLDKRNYSRATTSQRCVRAGGKHNDLENVGYTARHHTFFEMLGNFSFGDYFKHDAIQFAWELLTSEKWFALPKERLWVTVYESDDEAYEIWEKEVGIPRERIIRIGDNKGAPYASDNFWQMGDTGPCGPCTEIFYDHGDHIWGGPPGSPEEDGDRYIEIWNIVFMQFNRQADGTMEPLPKPSVDTGMGLERIAAVLQHVNSNYDIDLFRTLIQAVAKVTGATDLSNKSLRVIADHIRSCAFLIADGVMPSNENRGYVLRRIIRRAVRHGNMLGAKETFFYKLVGPLIDVMGSAGEDLKRQQAQVEQVLKTEEEQFARTLERGLALLDEELAKLSGDTLDGETAFRLYDTYGFPVDLTADVCRERNIKVDEAGFEAAMEEQRRRAREASGFGADYNAMIRVDSASEFKGYDHLELNGKVTALFVDGKAVDAINAGQEAVVVLDQTPFYAESGGQVGDKGELKGANFSFAVEDTQKYGQAIGHIGKLAAGSLKVGDAVQAYVDEARRARIRLNHSATHLMHAALRQVLGTHVSQKGSLVNDKVLRFDFSHNEAMKPEEIRAVEDLVNTQIRRNLPIETNIMDLEAAKAKGAMALFGEKYDERVRVLSMGDFSTELCGGTHASRTGDIGLFRIISESGTAAGVRRIEAVTGEGAIATVHADSDRLSEVAHLLKGDSNNLADKVRSVLERTRQLEKELQQLKEQAAAQESANLSSKAIDVNGVKLLVSELSGVEPKMLRTMVDDLKNQLGSTIIVLATVVEGKVSLIAGVSKDVTDRVKAGELIGMVAQQVGGKGGGRPDMAQAGGTDAAALPAALASVKGWVSAKLQ
B6: E. coli AlaRS (Escherichia coli K-12; C666A) (protein)
chain: SKSTAEIRQAFLDFFHSKGHQVVASSSLVPHNDPTLLFTNAGMNQFKDVFLGLDKRNYSRATTSQRCVRAGGKHNDLENVGYTARHHTFFEMLGNFSFGDYFKHDAIQFAWELLTSEKWFALPKERLWVTVYESDDEAYEIWEKEVGIPRERIIRIGDNKGAPYASDNFWQMGDTGPCGPCTEIFYDHGDHIWGGPPGSPEEDGDRYIEIWNIVFMQFNRQADGTMEPLPKPSVDTGMGLERIAAVLQHVNSNYDIDLFRTLIQAVAKVTGATDLSNKSLRVIADHIRSCAFLIADGVMPSNENRGYVLRRIIRRAVRHGNMLGAKETFFYKLVGPLIDVMGSAGEDLKRQQAQVEQVLKTEEEQFARTLERGLALLDEELAKLSGDTLDGETAFRLYDTYGFPVDLTADVCRERNIKVDEAGFEAAMEEQRRRAREASGFGADYNAMIRVDSASEFKGYDHLELNGKVTALFVDGKAVDAINAGQEAVVVLDQTPFYAESGGQVGDKGELKGANFSFAVEDTQKYGQAIGHIGKLAAGSLKVGDAVQADVDEARRARIRLNHSATHLMHAALRQVLGTHVSQKGSLVNDKVLRFDFSHNEAMKPEEIRAVEDLVNTQIRRNLPIETNIMDLEAAKAKGAMALFGEKYDERVRVLSMGDFSTELAGGTHASRTGDIGLFRIISESGTAAGVRRIEAVTGEGAIATVHADSDRLSEVAHLLKGDSNNLADKVRSVLERTRQLEKELQQLKEQAAAQESANLSSKAIDVNGVKLLVSELSGVEPKMLRTMVDDLKNQLGSTIIVLATVVEGKVSLIAGVSKDVTDRVKAGELIGMVAQQVGGKGGGRPDMAQAGGTDAAALPAALASVKGWVSAKLQ

A word on the Km: it is the concentration of substrate that gives half-maximal velocity. The kcat is the maximal rate divided by the concentration of active sites. By kcat/Km is commonly meant the second-order rate constant that governs catalysis at low substrate concentration.

Substrate in this series: C[C@H](N)C(=O)O
In words: purified protein. As to conditions: 2 mM ATP, 2 mM PPi, 10 mM MgCl2, 30 mM KCl, 2 mM NaF, pH 7.2, 37 °C, amino acid activation.
In the case of B1, the Km turned out to be 190 ± 30 µM, the kcat worked out at 13.7 s⁻¹ and the kcat/Km turned out to be 71500 M⁻¹ s⁻¹.
The like results for B2 were, in that order, 177 ± 37 µM, 13.2 s⁻¹ and 74300 M⁻¹ s⁻¹.
For B3, the Km is 320 ± 150 µM, the kcat was 20.8 s⁻¹ and the kcat/Km is 65200 M⁻¹ s⁻¹.
On the same counts, the results for B4 are 180 ± 15 µM, 20.3 s⁻¹ and 112000 M⁻¹ s⁻¹.
As to B5, the Km stood at 260 ± 76 µM, the catalytic constant (kcat) turned out to be 11.9 s⁻¹ and the kcat/Km is 46000 M⁻¹ s⁻¹.
The like results for B6 were, in that order, 263 ± 115 µM, 16.8 s⁻¹ and 63800 M⁻¹ s⁻¹.
